Consider seven molecules from patent US20260209346A1 (LTZ THERAPEUTICS, published 2026).

Assay [1] concerns the target T1, CD79b endogenously expressed on the cell surface (malignant B cell lines, normal B cells in PBMC, CLL … (human, UniProt P40259 29-229)).
T1 construct: whole, on cells; On cells CD79b stands in the B-cell receptor complex with CD79a and surface Ig; also called cell surface CD79b; endogenous CD79b
T1 sequence (looked up): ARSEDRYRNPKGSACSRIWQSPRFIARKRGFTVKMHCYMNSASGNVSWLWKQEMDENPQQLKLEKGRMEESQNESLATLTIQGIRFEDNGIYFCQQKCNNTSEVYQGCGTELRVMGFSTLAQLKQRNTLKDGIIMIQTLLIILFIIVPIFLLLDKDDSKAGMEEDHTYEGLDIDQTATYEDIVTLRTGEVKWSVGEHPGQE
The experiment in a line: flow cytometry on Nalm-6 cells; anti-human IgG1-PE; MFI (PE); table under the graph. As for the experimental part:
(§1) The binding affinities of anti-CD79b antibodies to malignant B cell lines were tested. […] The cells were then incubated with 100 μl anti-human IgG1-PE (Invitrogen, cat: 12-4998-82), 1:1000 dilution, for 30 min on ice, washed with 200 ul PBS for three times before flow cytometry analysis.
For orientation: In flow cytometry, cells or beads pass a laser one at a time.

For assay [2], the target named is T2, cynomolgus CD79b recombinant protein (cynomolgus).
T2 chain: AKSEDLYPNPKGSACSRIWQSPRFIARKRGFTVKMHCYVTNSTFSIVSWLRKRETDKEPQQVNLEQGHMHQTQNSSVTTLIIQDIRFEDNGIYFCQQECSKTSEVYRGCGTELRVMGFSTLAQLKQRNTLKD
The experiment in a line: ELISA, coated cynomolgus CD79b recombinant protein. As for the experimental part:
(§2) Binding affinities of anti-CD79b antibodies to human and cynomolgus CD79b recombinant proteins were tested by ELISA. 1 ug/ml (in PBS buffer) of human or cynomolgus CD79b recombinant proteins were coated on an ELISA plate overnight. ELISA plates were washed and blocked with blocking buffer (PBS+1% BSA) followed by incubation with serially diluted anti-CD79b primary antibodies. Anti-CD79b antibody binding was quantified using an anti-human IgG HRP secondary antibody (Biolegend Catalog #410902) and HRP substrate.

For assay [3], the target named is T3, human CD79b recombinant protein (human, UniProt P40259 29-159).
T3 construct: also called human CD79b ECD antigen; recombinant human CD79b ECD
T3 sequence: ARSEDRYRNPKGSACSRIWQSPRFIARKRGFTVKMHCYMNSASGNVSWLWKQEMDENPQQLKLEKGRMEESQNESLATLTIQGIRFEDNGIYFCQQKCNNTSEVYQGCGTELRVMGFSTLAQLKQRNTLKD
The experiment in a line: BLI, antibody captured on anti-human IgG Fc probes, human CD79b in solution, 1:1 model. How it is done: (§3) Binding affinities of anti-CD79b antibodies to human CD79b recombinant proteins were tested by BLI. 10 ug/ml of anti-CD79b antibodies were captured by anti-human IgG Fc probes (Gator Bio Catalog #160024). […] Absolute kD was determined by applying a 1:1 binding model (Global Rmax unlinked).
(In general: BLI is a label-free optical method that tracks binding on a fibre tip over time.)

Assay [4] deals with T1, CD79b endogenously expressed on the …. Put plainly: flow cytometry on a cell line expressing endogenous CD79b (not named on the sheet or in the text); MFI (PE).
Assay [5] shares this target. Put plainly: flow cytometry on PBMC of CLL Donor 0255 (B lymphocytes); PE goat anti-human IgG Fc; MFI PE. How it is done: To determine the binding affinities of the anti-CD79b antibodies to cell surface CD79b on Chronic Lymphocytic Leukemia (CLL) patient's B lymphocytes, a cell-based binding assay was conducted. […] CLL patient PBMCs were purchased from the company Bioscience. […] Specifically, 2.5×10⁴ PBMC cells in 50 μl FACS buffer (1×PBS+2% BSA+2 mM EDTA) were seeded in each well of a V bottom 96-well plate. […] The mixture was incubated on ice for 30 minutes, and then washed twice with FACS buffer. The cells were re-suspended in 100 μl FACS buffer containing PE conjugated goat anti-human IgG Fc (1:1000) and anti-human CD19 (BV421), and incubated for 30 minutes on ice in darkness. After washing twice with FACS buffer, the cells were re-suspended in 100 μl of FACS buffer and analyzed with a Cytek cytometer.

Assay [6] shares this target. Put plainly: flow cytometry on BJAB cells; anti-human IgG1-PE; MFI (PE); table under the graph. As for the experimental part:
as §1

The target in assay [7] is T3, human CD79b recombinant protein. The experiment in a line: BLI; antibody at 10 ug/ml captured on anti-human IgG Fc probes, hCD79b in solution; same value printed in the rows for 18.3 and 9.14 nM hCD79b. As for the experimental part:
as §3

Assay [8] has as its target T1, CD79b endogenously expressed on the …. Put plainly: flow cytometry on PBMC of Donor 889, B cells marked with CD19-BV421; anti-human IgG1-PE; MFI (PE); table under the graph. How it is done: (§4) The binding affinities of anti-CD79b antibodies to endogenous B cells were tested. […] The cells were then incubated with […] mixture of anti-human IgG1-PE (Invitrogen, Cat #: 12-4998-82), 1:1000 dilution; CD19-BV421 (Biolegend, Cat #:302230, 1:400 dilution) for 30 min on ice, and washed with 200 ul PBS for three times before flow cytometry analysis.

The target is the same in assay [9]. Put plainly: flow cytometry on Ramos cells; anti-human IgG1-PE; MFI (PE); table under the graph. As for the experimental part:
as §1

For assay [10] the target is unchanged. The experiment in a line: flow cytometry on PBMC of Donor 2890, B cells marked with CD19-BV421; anti-human IgG1-PE; MFI (PE); table under the graph. How it is done: as §4
For assay [11] the target is unchanged. The experiment in a line: flow cytometry on PBMC of Donor 2235, B cells marked with CD19-BV421; anti-human IgG1-PE; MFI (PE); table under the graph. As for the experimental part: as §4
Assay [12] shares this target. Put plainly: flow cytometry on PBMC of Donor 356, B cells marked with CD19-BV421; anti-human IgG1-PE; MFI (PE); table under the graph. How it is done:
as §4

Assay [13] shares this target. The experiment in a line: flow cytometry on SU-DHL-4 cells; anti-human IgG1-PE; MFI (PE); table under the graph. How it is done:
as §1

Assay [14] addresses T3, human CD79b recombinant protein. Put plainly: ELISA on recombinant human CD79b ECD; A 450nm. (In general: An ELISA detects its analyte on a solid surface through an enzyme-linked reagent.)
For assay [15], the target named is T1, CD79b endogenously expressed on the …. The experiment in a line: flow cytometry on Daudi cells; anti-human IgG1-PE; MFI (PE); table under the graph. As for the experimental part:
as §1

In assay [16] the target is T3, human CD79b recombinant protein. The experiment in a line: ELISA, coated human CD79b recombinant protein. How it is done: as §2

Numbering of substitutions follows the chain as printed.

B1: ch48H10 (antibody, human IgG1, kappa, V domains shown)
VH: QSVKETGGGLVQPGGSLTLSCKASGFTINIDYWISWVRQAPGKGLEWIGIIDPGDGTTYFAIWVSGRFTISTDNAQNTVDLQMNSLTAADTATYFCAREFSASAYQYDLWGPGTLVTVSS
VL: ALVMTQTPSSVSAAVGGTVSINCQASEDIESYLTWYQQKPGQPPKLLMYRASTLSSGVSSRFSASGSGTEFTLTISGVQPDDAATYYCQQGYRNKDVDNPFGGGTEVVVKR
notes: Rabbit/human chimeric IgG1 kappa; also called chimeric 48H10
Usually EC50 stands for the midpoint of the concentration-response curve. A lower EC50 goes with greater potency. A word on the IC50: it is the concentration that inhibits the measured activity by half. In general, Kd refers to a measure of binding affinity in units of concentration. By EC50 (read off the curve) is commonly meant the concentration at which the effect is half-maximal. A word on the koff: it is the first-order rate constant of dissociation. As usually defined, the kon is the second-order rate constant of association. For B1, the EC50 in assay [1] was determined as 2.69 nM; in assay [6] it was 0.98 nM; in [8], 0.154 nM; in assay [9] it was 1.32 nM; in [10], 1.17 nM; in [11] it was 0.272 nM. Further, the EC50 in [12] amounted to 0.446 nM; in assay [13], 0.98 nM; in assay [15] it was 1.38 nM. The IC50 worked out at 65.3 nM in assay [2] and 0.6 nM in [16]. The Kd in assay [3] came out at 0.0314 nM. Also, the “EC50 (read off the curve)” value was ~0.4 nM in assay [4], ~0.9 nM in assay [5] and ~0.3 nM in assay [14]. The koff in assay [7] worked out at 1.09e-05 s⁻¹. Also, in assay [7], the kon is 346000 M⁻¹ s⁻¹.

B2: hu23D8 (antibody, V domains shown)
VH: EQQLLESGGGLVQPGGSLRLSCAVSGLSLSSNAINWVRQAPGKGLEWIGMIYSGGRIEYASWAKGRFTISKDSSKNTVYLQMNSLRAEDTAVYFCAKGMSPSAHSSDIWGPGTLVTVSS
VL: EGVMTQSPATLSVSPGERATLSCQASQSISDNLSWYQQKPGQPPRLLIYDASDLASGVPARFSGSGSGTEFTLTISSLQSEDFAVYYCQQDWISSNVDNTFGGGTKVEIK
notes: Humanized antibody; also called humanized 23D8
As for B2, the “EC50 (read off the curve)” value in [4] was ~0.5 nM; in [14] it was ~0.1 nM.

B3: hu44G2 (antibody, V domains shown)
VH: EQQLVETGGGLIQPGGSLRLSCAASGFTINIDYWISWVRQAPGKGLEWIGIIDPGDGTTYFAIWVSGRFTISFDNSKNTVYLQMNSLRAEDTAVYFCVREFSASAYQYDLWGPGTLVTVSS
VL: ELVMTQSPATLSVSPGERATLSCRASEDIENYLAWYQQKPGQPPRLLIYRASTLSSGVPARFSGSGSGTEFTLTISSLQSEDFAVYYCQQGYRNSNVDNPFGGGTKVEIK
notes: Humanized antibody; also called humanized 44G2
In the case of B3, the “EC50 (read off the curve)” value in assay [4] and in assay [14] was ~0.2 nM throughout.

B4: hu57B9 (antibody, V domains shown)
VH: B3 VH with G26E, F73R, N75T, V98A, F101V
VL: B3 VL with R24Q, N31S, R50F, A51T, T53N, S55A, F71Y, N96D, D98H
notes: Humanized antibody; also called humanized 57B9
Turning to B4, the entries for the “EC50 (read off the curve)” value in assay [4] and in assay [14] were ~0.2 nM and ~0.08 nM, respectively.

B5: hu48H10 (antibody, V domains shown)
VH: B3 VH with F73T, V98A
VL: B3 VL with R24Q, N31S, A34T, I48M, G64A, S95K, N96D
notes: Humanized antibody; also called humanized 48H10
Consider B5, for which the “EC50 (read off the curve)” value is ~0.5 nM in assay [4] and ~0.1 nM in [14].

B6: ch22D10 (antibody, human IgG1, kappa, V domains shown)
VH: QSVEESGGRLVTPGTPLTLTCTASGFTINDYHMNWVRQAPGKGLEWIGIISSNGDTYYASWAKGRFTISRTSTTVDLKMTSLTTEDTATYFCARDDRDRSYAFDPWGPGTLVTVSS
VL: ALVMTQTPSSVSAAVGGTVTINCRASEDIERYLAWYQQKPGQRPKLLIYGASTLASGVPSRFKGSGSGTEYTLTISGVQPDDAATYYCHQGDSSRNVVNVFGGGTEVVVKR
notes: Rabbit/human chimeric IgG1 kappa; also called chimeric 22D10
Turning to B6, the EC50 in assay [1] was determined as 0.43 nM; in [6], 0.34 nM; in [9] it was 0.36 nM; in assay [13], 0.4 nM; in assay [15] it was 0.24 nM. Besides, the Kd in [3] amounted to 0.313 nM. The koff in assay [7] is 0.000106 s⁻¹. In addition, the kon in [7] stood at 338000 M⁻¹ s⁻¹. The IC50 in [16] stood at 0.22 nM.

B7: ch57B9 (antibody, human IgG1, kappa, V domains shown)
VH: QSVRETGGGLVQPGGSLTLSCEASEFTINIDYWISWVRQAPGKGLEWIGIIDPGDGTTYFAIWVSGRFTITRNTNLNTVDLKMTSLTEADTATYFCAREVSASAYQYDLWGPGTLVTVSS
VL: ALVMTQTPSSVSADVGGTVSINCQASEDIESYLAWYQQKPGQPPKLLIYFTSNLASGVPSRFKGSGSGTEYTLTISGVQPDDAATYYCQQGYRNSDVHNPFGGGTEVVVKR
notes: Rabbit/human chimeric IgG1 kappa; also called chimeric 57B9
With B7, the EC50 in assay [1] amounted to 1.73 nM; in assay [6], 0.91 nM; in [9] it was 1.3 nM; in [13], 0.89 nM; in assay [15] it was 1.22 nM. Moreover, the values for the IC50 in [2] and in assay [16] were 186 nM and 0.42 nM, respectively. In addition, in assay [3], the Kd stood at 0.239 nM. The “EC50 (read off the curve)” value in assay [4] is ~0.3 nM; in assay [5], ~0.9 nM; in [14] it was ~0.1 nM. Moreover, the koff in assay [7] came out at 8.8e-05 s⁻¹. For the same molecule, the kon in assay [7] is 368000 M⁻¹ s⁻¹.
